Experimental data reported in the DeepSol protein solubility set.

Experiment: soluble on expression in E. coli; label from the status in PepcDB or PDB records
In the case of “MKSIVGVYETPQETIAAIEGLLTKGYDSDDISVVTSRRDTDYLESRTGTEVNQAIDAHQDESESFFDKLKDYFTMDDTATHSKALSDLDIKTDEIDKYQEDLDDGKLLVAVDTDADVIAPIDNGNALSGGFSSTNELDYTTKEEKTMPLREEQLKVDKEDVQTGEVEIGKEVKTEKRDMDIPVRHDEIYVERRPVDENKTDAAPVNDSEEIRVPIVEEKLEVTKKPVVTDEVVVGKRTVEENEHISETVKKEEPRLNKEGKVDGLDDDPLNNQMKIIDRQPKNLKSLEHHHHHH”, the “soluble on expression in E. coli” value was “soluble”. In the case of “SPNNSKHKKKQQRRQQEAQKKSRAKQIETDKKNDEFLDTELDEVSPLVIDDDMTEFKNMPKVELHAHLSGSLSPETIKLIMESDETRAEEIMKKYKLEKPENMTGVFDCFPVIHAILRKPEAIRIAIRQTIKEFEEDNCVYLELRTSPKETDFMTYEDYLQVCIESFEAAKHEFPRIKTFLIVSLDRRMPFETAAHILGLIGEAQQRTNVIVGVELSGDPHLDGRRLLKLFVAARRFHGLGITIHLAEVLQNMADVEDYLNLRPDRIGHGTFLHTDPYTEYLTNKYKIPLGENLIQLHLIFLFFLEICLSSNVYSKTTTNYRNSHFNYWRKRGVPVFICTDDKGVIPGATLTEEYYKAAITFDLSTEELIGINQDALLNSFAYKYNVTDLTETFRKINNNVLD”, the “soluble on expression in E. coli” value was “not soluble”. With “MGSDKIHHHHHHMTVELLNEPLSRYPAFDTADPEELRQALSSVYGAKLVEGPIAADFHARSNFVQLDDIALAFGVGTGSIAVEFPEGECARLQIALSGQFTTRSGGTSTAINARQAGIISPGRNARTEYGQNYSFTLLRVSTSALERKLTTLLGCKPKASLEFEPAANNEAPQVVNLRRMLCFLANQLNCSPLPPVVLAELQEAITLLFLSAFRHNYSRQLERESHGIAPKHVRQVEEYIEANWMRPITIEKLTALTGISSRGIFKAFQRSRGYSPMAFAKRVRLQHAHNLLSDGATPTTVTAAALSCGFSNLGHFARDYRDMFGEKPSETLQRARP” the “soluble on expression in E. coli” value was “not soluble”. With “MGSDKIHHHHHHMKTMRKILEIDEERCNGCGLCVLDCAEGAIAIVDGKAKIVSDSFCDGLGACIGSCPQDALHIIEREAVPFDEEAAMEHVRSQGGTPEANHGHGHGAGTPHRHGQSAEHGGHGRIPGHGGCPGAAMRRFDSAESPAFAVAEGTVKGPGHWPLKIRLVPPTAPFLKGADVLVAADCAAAASPIFHSHFAAGKVVLIGCPKFDDTEAYAERLADILRVSGIASLTVLRMEVPCCRGLSAAAEKARVLSGTSLVLKEVIMTCAGGPAAPAPLSSL” the “soluble on expression in E. coli” value was “not soluble”. With “MGSDKIHHHHHHMNLLTDIFCQKPKRETAMTTETHYDTQAANSCYYQVQGSEVEIFNFAKTHDLPVLIKGPTGCGKTRFVEFMAESLGRELVTVSCHDDLTAADLLGRHLVSSEGTFWQDGPLTRAVRHGGICYLDEIIEARKDTTVVLHSLSDHRRELHLERTGEVIKAHKDFMLVVSYNPGYQNMMKGLKPSTRQRFVAMSFDYPSPEQEAEILVHEAGITTELAHTLVKLGADIRRLSDIDLKAAVSTRLLIYAAKMMSSGCHAQMACLHCIIEPLTDEKQTIEALTQLVNAHF” the “soluble on expression in E. coli” value was “not soluble”. In the case of “KITGLLDGDRVIVFDKNGISKLSARHYGNVEGNFLSLSLVEALYLINLGWLEVKYKDNKPLSFEELYEYARNVEERLCLKYLVYKDLRTRGYIVKTGLKYGADFRLYERGANIDKEHSVYLVKVFPEDSSFLLSELTGFVRVAHSVRKKLLIAIVDADGDIVYYNMTYVKP”, the “soluble on expression in E. coli” value was “soluble”. With “MAHHHHHHMGKRDLQKEKQQELAAIWGSEVQGDARFPKRRRAAQKQGLGAVENNDDVDTDVLSDIVSDAGSITSKHSDTAKKETRKTAKKKSTNYRLHCFVEPGTELNAVRTVFEAYEPKVEIRTAQKGNLLNKSQFAVLTFRNKAMALHAVKKLDGTNQRDLLGVSSLKLNLMLTRQQSKIARKTFNRKIRQEKERNQLMEEQADLAFIRNFLKQHSGAKKDKQNGKALSLS” the “soluble on expression in E. coli” value was “soluble”. In the case of “MGFPKEGEKVQIHSYKHNGSIHRMWEETTILKGTQSLVIGANDRTVVTESDGRTWITREPAICYFHANYWFNVIGMLREDGVYYYCNLSSPFAYDPEALKYIDYDLDIKVYPDMTYTLLDEDEYEKHSEIMQYPPVIDTILKRNVAHLTQWIHQRKGPFAPDFVDMWYERYLMYRN”, the “soluble on expression in E. coli” value was “not soluble”. With “MFRWLFQSEGVTRSFDTPSETQSARDDRKTIGDYADNFLLFDLVMGEVEMAVIRFEIEKEEKEEAERKAERRPDYSWLISGNMNRARKQLSINEKNRIENACERLKPCEWSKTIDTWKIKTQNPSTRDQIIENFVIATHETIQSRKHEPTITEVLKNFATGRSGSLHTVSHGELPRVGSGRNISELSFIELQEMV” the “soluble on expression in E. coli” value was “not soluble”. In the case of “MGSDKIHHHHHHMDKILNLDSVDLYNKLYGLETLNPLVSVIDLNKATSSVDLIRFNYGIYALYLKLEKACDIKYGRQTYDYQEGTIVCFAPGQTAETNPTTDKVQVNAHGILFHPDLLRGTSLGKNIKKYTFFSYEVNEALHLSEEERSIVMDCLKIIRMELEHGVDKHSKTLLVNHIELLLNYCMRFYERQFITRGKTNRDVLTRFENLLDEYFESTLAEQDGLPTVKYFADKLCLSSNYFGDMFKKETGKSPQEYIQEKVIELAKERISGTADTVSQIAYSLGFQYPQHSCRLFKKRVGYTPSEYRAQIGLSTNL”, the “soluble on expression in E. coli” value was “not soluble”. In the case of “MSLKLYYCRGACSLVVRIILNDLGLNFQDEEVDLKVKKTAGGDDFFKINPKGAVPTLVLDNGDILTENQVILQYLADTTPGQKLLAAVGESKRYHTLEWLNYISTELHKSLGMFFNPTVSEEIKSKILTPLVMTRFAYTNTRLEKGSYLMGNEFSLPDAYLFVMVSWAKYFKLDLSQFEHLTKFMDLMLARSSVAKSLQQEKLEGHHHHHH”, the “soluble on expression in E. coli” value was “soluble”. In the case of “GEETRTEVEKKNYMNNAEEAKDVLLGVYRTNTLDAMYGYYLSILFNLGTDISQVEGSGNENFRIIPTNSFPTTQSEVQQTWAALYTGIYRANDFLERISNKIGSYTTTDKKLATLYIAEARALRGMFYFELVRRFGNVVLMTSTQMSNQNPATYVQSAPEKVYEYIEDDLLYACDILPYATDDQYRESNDYRFSKGAALGLLTKVYATWAGYPVKDESKWEAAAKTARILVESGKHGLLKDYEQLWKNTCNGTWDPTESLIEISFYSPTVSGNSDPVGRIGKWNGVKTTAIAGVRGSCAANVKVVHTFVLDWREDVSDIRRDLSIANYQYTDTKKSLWVAGASDTDESAAEKDADPTKAQKNKQNYTPAKWDIQKYVTTNSFINNDKSNVNWYFLRYADVLLLYAEALNEWKHGPDAEAYNAINAVRRRGYGNPSNTSACDLPQGLDETSFREAVRKERSYELSFEGHRRQDLIRWGIYYKTVQATAKELGYWWEGTGSPNYSVATYTEEGKHELFPIPQRDMDLCIQFNQNPKW”, the “soluble on expression in E. coli” value was “soluble”. With “MKIMIFICGEGLGHTSRCLALGKELLNAGHEIKFGAYGYSKELVEKTGYTAQEIPSEIKLVGKAGSLDLTGSIEATLKSAQLLGGPKLLKLLREFKPDVVVSDSYYLGTLAAMVLKLPVYLIINQSNMEEFFKNRGVPVRIIGKLTKKFYKEVFEKTDKILEHHHHHH” the “soluble on expression in E. coli” value was “not soluble”. For “RKNSQSETFKVGVLQYVSHNALDEIYRGIKAGLKEEGYSGKKIKIDFMNAEGDQSKVQTMSQTLVNHKNDVLVGIATPAAQGLASATKKTPIIMGAVTDPVGAKLVKDLKKPNGNVTGVSDKTPISDQVSLIKKLTPDVKTVGILYSSSEDNSKSQVEEFKKIAEKKGYKVLEYSVPSTNEIATTMNVMLDKTDAVWIPLDNTIASAFPTVVSAAKTAKKPIYPSVDTMVTEGGLASVVVDQYKLGVATGKMAVKVFEGKKVSQLPVDIFDKGTPVVNKKVAKELGIDIPSDILKKAKQQKNQ”, the “soluble on expression in E. coli” value was “not soluble”. In the case of “MTEAMKITLSTQPADARWGEKATYSINNDGITLHLNGADDLGLIQRAARKIDGLGIKHVQLSGEGWDADRCWAFWQGYKAPKGTRKVVWPDLDDAQRQELDNRLMIIDWVRDTINAPAEELGPSQLAQRAVDLISNVAGDRVTYRITKGEDLREQGYMGLHTVGRGSERSPVLLALDYNPTGDKEAPVYACLVGKGITFDSGGYSIKQTAFMDSMKSDMGGAATVTGALAFAITRGLNKRVKLFLCCADNLISGNAFKLGDIITYRNGKKVEVMNTDAEGRLVLADGLIDASAQKPEMIIDAATLTGAAKTALGNDYHALFSFDDALAGRLLASAAQENEPFWRLPLAEFHRSQLPSNFAELNNTGSAAYPAGASTAAGFLSHFVENYQQGWLHIDCSATYRKAPVEQWSAGATGLGVRTIANLLTA”, the “soluble on expression in E. coli” value was “soluble”. For “MIRIGHGFDVHRFGGEGPIIIGGVKIPYEQGLIAHSDGDVALHALSDALLGAIAAGDIGRHFPDTDDKWKGADSRELLKDVYRRVKAQGYVLGNADVTIIAQAPKMAPYIQAMCAAIAEDLETDLGNINVKATTTEKLGFTGRKEGIACEAVVLLRKA”, the “soluble on expression in E. coli” value was “not soluble”. In the case of “MGSDKIHHHHHHMEIHMNPWLNAVAQVEALEDLVLNADLVDSMRERWSGLSGSQVGRINFYTPSFKHHETSEVSACGKNAFPAISITGGDCKLQCDHCKAKILEPMIPVRTPEELDRLVDRIVLDGGRGLLLSGGSDHQNVVHYEPYFPTVRKIKDRYPNLQIAMHTGIATPEFARGMEDAGVDVAMMDVIGAQDTINQVYHLRRSVDDFEAALEALVATRMKVVPHIVIGLHYGELLGEWNALEIIQRHLPSALVLVVIMPQYAASSRPFATPAADEIGKFFMDARAALPETPVLLGCARPSGVHRSITDTYAVMAGLNGVAFPSDGMLALAKHLERDVFVTPSCCSMIVGEEVLALGDETTTVPLDYVPAAPKRRPQLRDIPIVFTA”, the “soluble on expression in E. coli” value was “not soluble”. For “MKLPYSITVTYDHRTSPHIPFSSHIGKQNSFFSFLSRKKSMYHHITFCSVPATDGRARGQRPTGHFHLFFVVNRLLPRTRSTTKPSCSFAQPVTPRTREGAGVRGHRRRRRGSLSLIPWKTSNDKQKDDKRSLFCYMREIIAVGNFSKYMLLEHHHHHH”, the “soluble on expression in E. coli” value was “not soluble”. In the case of “MGSDKIHHHHHHMPLPQVTMQELPWKMKKSLSRSTLRSPNGFSEIGLKLEMVSQDALRRTIFPLGGLTKEFVKKIAAENRLHHVLQKKESMGMCFIGKRNFEHFLLQYLQPRPGHFISIEDNKVLGTHKGWFLYTLGQRANIGGLREPWYVVEKDSVKGDVFVAPRTDHPALYRDLLRTSRVHWIAEEPPAALVRDKMMECHFRFRHQMALVCCVLQGGRVPGQREDPAAGAVCLHAPEGPAQSWDGH”, the “soluble on expression in E. coli” value was “not soluble”. In the case of “SKVLLVFDFDNTIIDDNSDTWIIQCAPDKKLPIELQDSYQKGLWTEFMGRVFKYLRDEGVKEEELKRAVTSLPFTSGMIELLSFLRMNKDRFDCIIISDSNSIFIDWVLEAAAFHDVFDTVFTNPASFDSTGRLTVRNCHTHACTRCPKNLCKNTVLGEFIDKQLQKGVRYTRIVYIGDGGNDVCPVTFLKKNDVAMPREGYTLHRTLDKMSQNLEPMASSIVVWSSGMEIISHLQFLIQM”, the “soluble on expression in E. coli” value was “soluble”. With “MGHHHHHHSHMPPGGHIESGASFSPSAGSDGDKGLKPREEGEAPEAGPCLASQLAPVQWVAPPRLLLRLIFIDLPALLIAPTAESSAEEDEEPHDEGQSSEDQAPIANGLIVIVERVHVPLGAAATVHRQPSHFPR” the “soluble on expression in E. coli” value was “not soluble”. For “MKAVIFIMDGLGDRPNKDGNTPLKEAKTPVMDKMAKDGICGLMNAVDVGVRPGSDTAHLAILGYDPYTTYTGRGPFEACGVGVTVKPGDIAFRCNFSSVNENFIVTDRRAGRIEDTSELEKELDGLKIDDIDIIFKESGGYRAALVLRGPGLSDKISDADPKKEGKRVKEIHPLDNSKEAKKTAEIVNKLLKIAYEKLDKHPVNEERRKQNLPVANMIVPRGVGQVPEIMQFSEKTGLKGACIAGTGLIKGIAKMVGLDVIDVEGCDGTPNSDLMAKACAIVETLKDYDFILVNVKGADEAGHDGNYELKKEIIEKIDEMLDYITKNIDKDEVYIAMSGDHSTPIEEMDHSADPLPILIWGKSVRVDDVEKFDEFSTYKGGLNWIKGTNIMPILMDLMSIAKKYGA”, the “soluble on expression in E. coli” value was “not soluble”.
